This note sets out measurements from PMC12455602.

Assay [1] concerns the target SscR^Ac (RSS-sensitive transcription factor in copper stress response), MarR family transcriptional regulator of Acidithiobacillus caldus (Acidithiobacillus caldus). Description: SEC. On the technique in general: In gel filtration, larger molecules generally elute earlier.
Assay [2] concerns the target SscR^Ac after H2Sn treatment (persulfidated SscR^Ac) (Acidithiobacillus caldus). Put plainly: SEC.

The stoichiometry N is the number of molecules, sites or subunits per partner or assembly. With “SscR^Ac (RSS-sensitive transcription factor in copper stress response), MarR family transcriptional regulator of Acidithiobacillus caldus (natural protein)”, the stoichiometry N in assay [1] stood at 4.
In assay [2], “SscR^Ac after H2Sn treatment (persulfidated SscR^Ac) (natural protein)” gave a stoichiometry N of 4.
